Source: patent US12365732 (23ANDME, dated 2025)

What was measured:
[1] = target: T1, hu-CD226 on Expi293 cells (human, UniProt Q15762 19-336); test: FACS, CD226-transfected Expi293 cells
T1 sequence: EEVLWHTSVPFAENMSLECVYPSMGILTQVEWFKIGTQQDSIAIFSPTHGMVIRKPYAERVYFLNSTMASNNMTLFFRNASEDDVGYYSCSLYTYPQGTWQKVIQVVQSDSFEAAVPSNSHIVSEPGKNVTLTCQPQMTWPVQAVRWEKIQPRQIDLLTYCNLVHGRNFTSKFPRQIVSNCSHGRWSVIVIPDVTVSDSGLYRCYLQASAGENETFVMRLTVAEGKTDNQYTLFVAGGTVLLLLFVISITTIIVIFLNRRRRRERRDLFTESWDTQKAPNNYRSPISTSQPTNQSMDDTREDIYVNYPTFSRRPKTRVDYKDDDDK
Protocol: In order to assess the generated antibodies for secondary binding to CD226, sequences encoding human CD226 ("hu-CD226") (SEQ ID NO: 482) and cyno CD226 ("cy-CD226") (SEQ ID NO: 483) (see Table 26 and Sequence Listing) were each cloned into pcDNA3.1 expression vector and Expi293 cells were separately transfected with plasmid containing either the hu-CD226 or cy-CD226 coding sequence. Starting concentrations of 1 μM and corresponding 3X serial dilutions of each antibody, NGS8, 10G1, and MABT398 (CD226 positive control, EMD Millipore, Burlington, MA, USA), were prepared for staining. Secondary antibodies employed included goat anti-mouse F(ab)2-PE (Invitrogen, Carlsbad, CA, USA) and goat anti-human F(ab)2-PE (Jackson ImmunoResearch, West Grove, PA, USA).
Samples, each containing one million transfected cells, were stained with primary antibody for 1 hr and secondary antibody for 30 min at 4° C. with agitation. Stained cells were washed in FACS buffer (1% BSA in PBS), fixed in 4% freshly prepared paraformaldehyde, and analyzed by flow cytometry. Ten thousand events were collected for each sample and curves, showing the fold change in CD226 binding, were separately plotted for hu-CD226 (FIG. 12A) and cy-CD226 (FIG. 12B) expressing cells.

[2] = target: T2, hu-CD96 (soluble, isoform 2 extracellular domain) (human, UniProt P40200 22-516, biotinylated in Octet and blocking ELISA); test: CD155 blocking ELISA
T2 construct: the assays name only hu-CD96; also called hCD96; biotinylated hu-CD96
T2 sequence: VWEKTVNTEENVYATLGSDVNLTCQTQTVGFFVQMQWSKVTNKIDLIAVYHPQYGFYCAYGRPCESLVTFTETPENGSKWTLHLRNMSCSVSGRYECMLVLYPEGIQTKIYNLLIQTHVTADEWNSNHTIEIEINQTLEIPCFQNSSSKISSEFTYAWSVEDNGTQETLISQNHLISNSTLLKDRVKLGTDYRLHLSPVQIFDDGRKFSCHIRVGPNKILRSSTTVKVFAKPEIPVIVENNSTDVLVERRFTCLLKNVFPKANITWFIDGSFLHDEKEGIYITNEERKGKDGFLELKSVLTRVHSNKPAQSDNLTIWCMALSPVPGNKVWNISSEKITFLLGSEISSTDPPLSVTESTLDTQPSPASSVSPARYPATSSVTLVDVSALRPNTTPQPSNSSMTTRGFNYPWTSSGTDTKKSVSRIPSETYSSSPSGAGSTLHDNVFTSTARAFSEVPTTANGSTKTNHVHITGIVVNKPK

hu-CD96 Fc = target: T3, hu-CD96 Fc (human, biotinylated in Table 16); test: SPR (Biacore), Fab
T3 construct: also called biotinylated hu-CD96-Fc

[3] = target: T2, hu-CD96 (soluble, isoform 2 …); test: BLI (Octet), biotin-CD96 on SA, Fab analyte
cy-CD226 His tag = target: T4, cy-CD226 His tag (cynomolgus monkey, UniProt A0A2K5W1Z6 19-247, biotinylated); test: SPR 25C, biotin-CD226-His captured, IgG analyte
T4 sequence: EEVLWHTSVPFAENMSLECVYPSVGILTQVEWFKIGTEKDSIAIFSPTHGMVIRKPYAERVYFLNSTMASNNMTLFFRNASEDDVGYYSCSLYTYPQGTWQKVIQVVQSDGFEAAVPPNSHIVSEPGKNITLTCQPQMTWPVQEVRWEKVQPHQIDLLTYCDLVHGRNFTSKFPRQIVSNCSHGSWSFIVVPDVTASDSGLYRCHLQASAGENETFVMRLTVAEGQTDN
Protocol: (§1) To determine the binding affinity to hu-CD226 and cy-CD226 of mAb1.v7.NGS8, h10G1, hCD155 and anti-hCD226 antibody DX11 (Abcam, cat #Ab33397), SPR measurement with a BIACORE™ 8K instrument was performed. Briefly, a 1:4 dilution of Biotin CAPture Reagent (GE Healthcare) into HBS-EP buffer (0.01 M HEPES pH 7.4, 0.15 M NaCl, 3 mM EDTA, 0.005% Surfactant P20) was applied to the chip at 2 µL/min flow rate. For the kinetics measurements, 5 µg/ml of biotinylated hu-CD226 His tag (Sino biological, cat #10565-H08H) and cy-CD226 His tag (Arco biosystems, cat #DN1-052H9) was captured at 10 µL/min to achieve ~50 response units in the second flow cell (FC2). FC1 was kept as a reference. Next, 3-fold serial dilutions of IgG in HBS-P buffer (0.01 M HEPES pH 7.4, 0.15 M NaCl, 0.005% surfactant P20) from low (1.3 nM) to high (1000 nM) concentration were injected (flow rate: 30 µL/min) at 25° C. The sensorgram was recorded and subject to reference and buffer subtraction before evaluating by BIACORE® 8K Evaluation Software (version 1.1.1.7442). Association rates ($kon$) and dissociation rates ($koff$) were calculated using a simple one-to-one Langmuir binding model. The equilibrium dissociation constant (K_D) value was calculated as the ratio of $koff/kon$. […]

hu-CD226 His tag = target: T5, hu-CD226 His tag (human, UniProt Q15762 19-247, limits assumed, biotinylated); test: SPR 25C, biotin-CD226-His captured, IgG analyte
T5 sequence (looked up): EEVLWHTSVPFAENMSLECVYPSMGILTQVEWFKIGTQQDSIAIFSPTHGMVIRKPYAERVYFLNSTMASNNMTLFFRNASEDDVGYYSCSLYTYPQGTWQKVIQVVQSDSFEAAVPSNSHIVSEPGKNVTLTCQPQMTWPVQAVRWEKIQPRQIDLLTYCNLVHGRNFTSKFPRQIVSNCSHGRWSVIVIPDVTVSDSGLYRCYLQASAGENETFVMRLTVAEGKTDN
Protocol: as §1

B1: 10G1 (clone 10G1.3G8), purified hybridoma antibody (antibody, V domains shown)
VH: QIQLVQSGPELKKPGETVKISCKASGYPFTTYGMSWVKQAPGKGLKWMGWINTDSGVPTYADDFKGRFAFSLETSANTAYLQINSLKNEDAATYFCARNIYYGWGNFDYWGQGTILTVSS
VL: DILMTQSPTTLSVTPGETVSLSCRASQDIYRNLHWYQQKSQGTPRLLIKHASDSISGIPSRFTGSGSGTDFTLSINSVKPEDEGIYYCLQGYSMPYTFGGGTKLEIK
notes: murine hybridoma IgG
[1]
  EC50: 232 nM

B2: mAb1.v7 Fab (Fab, V domains shown)
VH: EVQLVQSGAEVKKPGASVKVSCKASGFTFTNNWMHWVRQAPGQGLEWIGMIHPNSGITNINEKFKNRVTMTTDTSTSTAYMELRSLRSEDTAVYYCRSDGTYEGYFDYWGQGTLVTVSS
VL: DIQLTQSPSSLSASVGDRVTITCKASQNVGTAIVWYQQKPGKAPKVLIYSASTRYTGVPSRFSGSGSGTDFTLTISSLQPEDFATYYCQQYSSSPLTFGQGTKVEIK
[2]
  apparent IC50 (pooled screen): 0.74 nM
hu-CD96 Fc
  Kd: 44.6 nM
  koff: 0.000817 s⁻¹
  kon: 18300 M⁻¹ s⁻¹
[3]
  apparent Kd (pooled screen): 76 nM

B3: h10G1 IgG (humanized 10G1) (antibody, V domains shown)
VH: EIQLVQSGSELKKPGASVKVSCKASGYPFTTYGMSWVRQAPGQGLEWMGWINTDSGVPTYADDFKGRFVFSLDTSVSTAYLQISSLKAEDTAVYFCARNIYYGWGNFDYWGQGTLVTVSS
VL: EIVMTQSPDFQSVTPKEKVTITCRASQDIYRNLHWYQQKPDQTPKLLIKHASDSISGIPSRFSGSGSGTDFTLTINSLEAEDAAAYYCLQGYSMPYTFGGGTKVEIKG
notes: human IgG1 N297G
cy-CD226 His tag
  binding result: no binding (tested: 1000 nM highest)
hu-CD226 His tag
  binding result: no binding (tested: 1000 nM highest)
